Experiment: soluble on expression in E. coli; label from the status in PepcDB or PDB records

Sequence | soluble on expression in E. coli
MSLYFNKVLGMKEFGKDEKVFYRVAIRAIILQGDKILMVKSNTGDYKFPGGGVEKGETPEETLRREVQEETGYILNEVKEKFGVLIERDRRRRMGCTIFEMTSHYYLCSVIEERGEQHLDKYEEELGFTPIWISLDEVIRENENILNQREKINPWVKRETFVLKKIKEYLNENEGHHHHHH | soluble
MSLMLKKNDIIQVAISDLSHEGAGVAKHDGFVFFVDNALPEEVIDMRVLKVNKNSGFGKVEAYHYLSSARNADVNLTYLRTGIADLGHLTYEDQLTFKKKQVQDSLYKIAGISDVTVESTIGMTEPLAYRNKAQVPVRRVNGQLETGFFRKHSHDLIPISDYYIQDKEIDRLINFTRDLLRRFDIKPYDETEQTGLLRNIVVRRGHYSGEMMLVLVTTRPKVFRVDQVIEKIVEAFPAVVSIIQNINDKNTNAIFGKDFKTLYGKDTITDSMLGNNYAISAQSFYQVNTVMAEKLYQTAIAFSDLSKDDIVIDAYSGIGTIGLSFAKTVKAVYGVEVIEAAVRDAQQNAALNGITNAYFVADTAEHAMATWAKDGIKPSVILVDPPRKGLTESFIQASVAMGPQKITYVSCNPATMARDIKRYQELGYKLAKVQPVDLFPQTHHVECVVLLIKEEGHHHHHH | soluble
MSIKIDLNKCVGCQKCINICPGSLIDKNNDGKAYIKYPKDCWGCTACLKECKFKAIKYFLGADIGGNGSYMYVSEKGEELEWHMINEDGKEKIITTSRKESNKYLEHHHHHH | not soluble
MKVDLNADAGESYGAFAYGHDREIFPLVSSANLACGFHGGSPGRILEAVRLAKAHGVAVGAHPGFPDLVGFGRREMALSPEEVYADVLYQIGALSAFLKAEGLPLHHVKPHGALYLKACRDRETARAIALAVKAFDPGLPLVVLPGTVYEEEARKAGLRVVLEAFPERAYLRSGQLAPRSMPGSWITDPEEAARRALRMVLEGKVEALDGGEVAVRADTLCIHGDNPNAPEVARAVREALEQAGVEVRAF | soluble
PATSRFYEQHADCLAEQYTSLKFEDVHASWRAFWPQARDRVLDVGAGSGRDAKWMAEHGCEVIAIEPAQALLRFGKSYCGDSVTWLEDGLPKLEKTINLGFRFDLILVSAVWMHLAPTHRERAFRKLANLLAPNGRLVISLRHGDFSDGRKAYPVSVEELEKFAKNRALMVRNVSLDDDQLQ | not soluble
GEEQPQQISVASGTPVSADQTPATPQEQPRAPWWDASPGVQRLITLKDPQVVCEAASAGLLKTLRFVKYLPCFQILPLDQQLVLVRSCWAPLLMLELAQDHLHFEMMEIPETNTTQEMLTTRRQETEGPEPAEPQATEQPQMVSAEAGHLLPAAAVQAIKSFFFKCWSLNIDTKEYAYLKGTVLFNPDLPGLQCVKYIEGLQWRTQQILTEHIRMMQREYQIRSAELNSALFLLRFINSDVVTELFFRPIIGAVSMDDMMLEMLCAKL | soluble
MKTLILFSTRDGQTREIASYLASELKELGIQADVANVHRIEEPQWENYDRVVIGASIRYGHYHSAFQEFVKKHATRLNSMPSAFYSVNLVARKPEKRTPQTNSYARKFLMNSQWRPDRCAVIAGALRYPRYRWYDRFMIKLIMKMSGGETDTRKEVVYTDWEQVANFAREIAHLTDKPTLK | not soluble
MITFRKRVEIEADPAEVFRVISDPWRITEFWKGTRQVIEDGDFYRIRFAFPAWGLMSFHPDAERMTVLTSYLKGPVRGSKVDAVLVSSGKTVLQTEWNVRLSFYLRPFERRIASHFESGADHAINRIKESVEKDKK | not soluble
MGSDKIHHHHHHMLDAQHIQALKEIVGEENCFDDKAHKLAYCYDATRNRYEPDAVIFPRCEEDVSRLLAYCNTHKITIVPRGAGSGFTGGSLPVNGGIVLAFEKHMNKILEIDMENMVARVQPGVVNKRLQEAVEAMGLFYPPDPASEEYSTLGGNVSENAGGMRAAKYGITKDYVMALRAVLPNGDIIRAGKKTIKDVAGYNIAGILIASEGTLAVITEITLKLLSKPKLRQSAMGVFPTIESAMNAVYKTMAAGVTPVAMEFLDNLTIRAVESKFSKGLPVEAGAILITDMDGNLPEEIELQMAKIEEKFKENGALSFKKAASEEEAKDLWFARRNASQSVTIYGKKKLNEDITVPRSKLPELLQRINAISERYGVKTPCFGHTGDGNVHVNVMVEDGSDPKQLEIGHQAIEEIFKAAVELEGTLSGEHGIGISKAPFMHLAFTPEEMNLFRAIKQAFDPNNILNNGKMAL | not soluble
MKQLMIEASTPLCQLQDAGRFGVRHLGVTQGGALDWVAMHWANWLLGNPLGAPVVEVALGGFCVVAEQDCVLALAGADLDACVDDQPLAPWRSFALAKGQRLTLKQPKVGVRAYLAAPGGFLGEDVLGSCATVVREALGGIDGQGAALAKHQALAFTGSNAPLREVPQALCPQFAQKPVLDLVMGAQIGEFSGTSLFEAFNREWTLDSRADRMGIRLLGPQLVYQGAPMISEGIPLGAVQVPPDGQPIVLLNDRQTIGGYPRLGALTPLALAQLAQCMPGTVVRFRAVVQDEAWREQQLYLGRWS | not soluble
MGSDKIHHHHHHMSTLLRQHAEQQFAEELHELKQNETNPVPENWEMSPQSVVTYLMGGKLKNGFEVSPKYIGNRRLMEIAVATLVTDRALLLYGLPGTAKSWVSEHIAAAISGDSTLIVQGTAGTGEEAIRYGWNYARLLAEGPSVGALVQTPVMKAMQEGKIGRIEELTRIGSDVQDTLITILSEKTLPIPELNTEVQAIRGFNIIATANNRDKGVNDLSSALKRRFNTVILPLPDSIDEEIDIVRRRVESFEKVMQLPAEKPALEEIRRVVTIFRELRQGATADGKTKLKTPSGTLSTAEAISVVNNGLAMAGYFGDGEIHAEDLVSGILGAVVKDPVQDKVVWQEYMETVVKNRDGWKDIYRASRDMI | not soluble
MGSDKIHHHHHHMERTSDYWFMIEPYVHINIANGYMLLYNTLDKETIISNNEKVINLLEELLQDENCGVTILKNEQYRQNDIHSFITNLREKYMGDIIDISLSKGKPIQILPHTNFCNKRNEKYNFIKNANLLHFLNEIIIHLDHILDQDKLIDYLQSMPDNITYSISGDLKHIAKFDKLVDFLNQYNSSKKIICNYINFAIPASVCKNIFLYKIHIHFPIDIKQLIITTQSLKDQNNLFELIFDIASLDDYLKAWEIIEEYQIDKYQFNPIYTGYNIDFFKENVFLKKSDILSTSMSIKDFFIKQMINNNDFGKINIMPNGDVHSNINYPALGNICTHSIFELIQKEIEEGKSWLRVRNQEPCNACIYQWLCPSPSDYEIMIGQTNLCHVNIHNPNCENL | not soluble
MSQVQEQHISESQLQYGNGSLMSTVPADLSQSVVDGNGNGSSEDIEATNGSGDGGGLQEQAEAQGEMEDEAYDEAALGSFVPIEKLQVNGITMADVKKLRESGLHTAEAVAYAPRKDLLEIKGISEAKADKLLNEAARLVPMGFVTAADFHMRRSELICLTTGSKNLDTLLGGGVETGSITELFGEFRTGKSQLCHTLAVTCQIPLDIGGGEGKCLYIDTEGTFRPVRLVSIAQRFGLDPDDALNNVAYARAYNADHQLRLLDAAAQMMSESRFSLIVVDSVMALYRTDFSGRGELSARQMHLAKFMRALQRLADQFGVAVVVTNQVVAQVDGGMAFNPDPKKPIGGNIMAYSSTTRLGFKKGKGCQRLCKVVDSPCLPEAECVFAIYEDGVGDPREEDE | soluble
MGHHHHHHSHMVKMEPENKYLPELMAEKDSLDPSFTHAMQLLTAEIEKIQKGDSKKDDEENYLDLFSHKNMKLKERVLIPVKQYPKFNFVGKILGPQGNTIKRLQEETGAKISVLGKGSMRDKAKEEELRKGGDPKYAHLNMDLHVFIEVFGPPCEAYALMAHAMEEVKKFLVPDMMDDICQEQFLELSYLNG | soluble
MTTLPPPATELSADEARRLALRAQGFLGAPDRRAGVRGVLRHLGAVQLDTISVLARSHELIPYARLGAVGRRTVDDAYWTDTHAFEYWSHAACILPIEEWPHFAFRRRAYRNRPHWNHHLPEGDYDRVVKQLREEGPLTATDLGGAKRTSEWWDWSGTKVAVERALMYGEVVCVERRGWKRVYDLAERAVPAALLHDDLDDTECLRRLVRLAGQSLGVGTRADIADYHRLKAEQVDAVIADSGLVPVTVAGWGRPAWADPAALETVPRGRHRTTLLSPFDSLIWERARTERIFGFTHRLEAYVPRQKRVHGYFAMPVLAGGRLVGRVDPAREGRTLVAKQVTLDGPKAAPAVAQALVEAAGWVDCTNVRVERVETPDLREPLARELARLLDLEHHHHHH | not soluble
MPSAMNERTVAELEKLLRYIAANLKQRGREILTNYPITPPQFVALQWLLEEGDLTVGELSNKMYLACSTTTDLVDRMERNGLVARVRDEHDRRVVRIRLLEKGERIIEEVIEKRQRDLANVLESFSDEEIVVFERCLRKLHQEMTKE | soluble
MAKPPPGKSSGRGSINDDEGKIEVESGDIPHVTDTEIKDAAEKVRETAVSKGKSERDKAEGDYTIMNPDSMIRPDFASDEEIEEQAKWIPGRFEPYITPNPLDIETLVKRADTIATVFNCSGNNLTDSRLSGAYEIAMTRSDEWEGKAGENFEKYMASLPTIMGNHGKVANMLQIEAQKMIELYKNRRKGAKDIADQAVKAIEAIDDSKGEGLE | not soluble
MTIYHFVGIKGSGMSALAQILHDKGFQVQGSDVDKYFFTQKALEEKQIPIMTFSADNIKEGLTIIAGNAFPDTHEEIERANELNLPVIRYHKFLGQLIDGYTSIAITGSHGKTSTTGLLSHVVGAIRPTSYLIGDGTGSGTKDAKYFALEACEYQRHFLAYKPTYAIMTNIDWDHPDYFKSVDDVFNAFETLGKQVKKAVFALGDDVELRKLSLDVPIIYFGFGSENEFQAKNVKKETTGTKFDVYHRDEFLASFEIPAYGDHNVLNALSVIALCDYEGLPVDEVKKELKTFEGVKRRFSITEKGNQVLVDDYAHHPSEIRATVNAARQKYPNKKIVAVFQPHTFTRTRTFLQGFADSLNLADEVYLCDIFGSAREKTGNLTIADLAHKTKGNHIIKEEHTEELLQYPEAVILFMGAGDVQKFQAAYEKVLDNEIVANEVLKKSAIN | not soluble
MSLDAMAKILLVEDSATQAVEMTMLLQAANHEVVHVANGQLGLSHLKEQAPDLVITDLEMPEINGLQLVESMRANFSHIPSILVTSHGSEELAAEALRRGAAGYVPKTRMSDLLNDTIVDVLGVIRSDASYAKLISTLKKNVFVFDLPSDPELISPLVGLLMQVSAGMELLPSIEMVRLGVAVEHSLTNAMLHGNLEIPRDKQPSHGQLAREGMINDAMKERLSQEPYKSRVTHVEATASEHAIRIVITDQGPGFDTSNVPQAGELDASSLAASADGVGQADKQGLLLIASFVDQMWFNDEGNQITLVKRCGAEGHHHHHH | not soluble
MNERHVLVVFPHPDDEAFGVSGTIAEHAQNGTPVTYACLTLGEMGRNMGVPPFANRETLPHIRKQELEEACRILGIHDLRLLGYRDKTVEFEDEEELADQIAAIVAETNPSLVITFYPGYSVHPDHDACGAAVIRALKRWPKEERPTVHCVAFAKNCEQDLGQPDVVRDVSSVIDTKLAAIRAHRSQTEGLMQAASKRGDALAWLKTERFWTYRWDD | soluble
MHGKDPFSDFREFINTMESRVQELGKAYGVEHLAGPQGFAVRYLFENQDKEIFIKDIEKKLSISKSVASNLVKRMEKNGFVELVTSDKDKRYKYVHLTDLGKKKAQDVGHFREAIHGQLLDGISKEDAETAFRVFHQIRKNLEKNKE | not soluble
